Laboratory results published in PMC6347451.

Target: native MICU1 (in the native, disulfide-connected MICU1-2 heterodimer) (human (endogenous in HEK 293)) (UniProt Q9BPX6)
UniProt Q9BPX6, sequence (Q9BPX6 34-476, one chain of several): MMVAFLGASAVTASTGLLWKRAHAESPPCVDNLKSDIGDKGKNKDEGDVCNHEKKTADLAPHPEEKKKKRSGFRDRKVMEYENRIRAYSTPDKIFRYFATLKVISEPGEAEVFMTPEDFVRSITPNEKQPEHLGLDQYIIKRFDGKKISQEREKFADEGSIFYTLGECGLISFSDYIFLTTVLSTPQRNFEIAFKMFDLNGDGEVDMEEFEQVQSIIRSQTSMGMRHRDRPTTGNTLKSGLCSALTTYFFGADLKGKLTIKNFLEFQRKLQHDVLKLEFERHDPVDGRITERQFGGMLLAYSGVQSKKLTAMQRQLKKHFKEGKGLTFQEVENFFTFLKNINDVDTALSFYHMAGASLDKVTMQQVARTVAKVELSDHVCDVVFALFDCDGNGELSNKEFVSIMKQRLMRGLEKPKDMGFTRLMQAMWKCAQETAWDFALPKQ

rate of mitochondrial ^45Ca^2+ uptake in low Ca^2+ (0.5 μM), D261A MCU expressed in MCU-KO cells (gating by MICU1 lost) (pmol/min/10^6 cells): 34
Substance: 1D4-tagged human MCU D261A (from UniProt Q8NE86 51-351) (natural protein)
